Measured values taken from paper PMC9495280 (Nature structural & molecular biology, 2022).
Where a chain is given by its changes, count along the chain named. In names and notes the source's numbering stands. Read-outs that look alike come from different tables or passages of the source.

B1: KaiB-I87A (natural protein, Synechococcus elongatus, UniProt Q79PF5 1-102, looked up)
chain: MSPRKTYILKLYVAGNTPNSVRALKTLKNILEVEFQGVYALKVIDVLKNPQLAEEDKILATPTLAKVLPLPVRRIIGDLSDREKVLAGLDLLYGELQDSDDF
B2: KaiC-EA K224A (natural protein)
chain: MTSAEMTSPNNNSEHQAIAKMRTMIEGFDDISHGGLPIGRSTLVSGTSGTGKTLFSIQFLYNGIIEFDEPGVFVTFEETPQDIIKNARSFGWDLAKLVDEGKLFILDASPDPEGQEVVGGFDLSALIERINYAIQKYRARRVSIDSVTSVFQQYDASSVVRRELFRLVARLKQIGATTVMTTERIEEYGPIARYGVEEFVSDNVVILRNVLEGERRRRTLEILALRGTSHMKGEYPFTITDHGINIFPLGAMRLTQRSSNVRVSSGVVRLDEMCGGGFFKDSIILATGATGTGKTLLVSRFVENACANKERAILFAYEESRAQLLRNAYSWGMDFEEMERQNLLKIVCAYPESAGLEDHLQIIKSEINDFKPARIAIDSLSALARGVSNNAFRQFVIGVTGYAKQEEITGLFTNTSDQFMGAHSITDSHIEAITDTIILLQYVEIRGEMSRAINVFKMRGSWHDKAIREFMISDKGPDIKDSFRNFERIISGSPTRITVDEKSELSRIVRGVQEKGPES
B3: nighttime KaiC R217A (natural protein)
chain: B2 chain with R217A, A224K
B4: nighttime KaiC I430G (natural protein)
chain: B2 chain with A224K, I430G
B5: daytime KaiC-K457A (natural protein)
chain: B2 chain with A224K, E431A, A432E, K457A
B6: nighttime KaiC R216A (natural protein)
chain: B2 chain with R216A, A224K
B7: KaiC-S431E-T432A (natural protein, Synechococcus elongatus)
chain: B2 chain with A224K
B8: nighttime KaiC R226A (natural protein)
chain: B2 chain with A224K, R226A
B9: nighttime KaiC H230A (natural protein)
chain: B2 chain with A224K, H230A
B10: nighttime KaiC-K457A (natural protein)
chain: B2 chain with A224K, K457A
B11: KaiC-S431A-T432E (natural protein, Synechococcus elongatus)
chain: B2 chain with A224K, E431A, A432E

How the values were obtained:
[1] = molecular target: B7; assay: fluorescence polarisation
[2] = molecular target: fluorescently labeled KaiB (Synechococcus elongatus) (UniProt Q79PF5); assay: fluorescence polarisation
[3] = molecular target: the molecule itself; assay: cryo-EM structure
[4] = molecular target: the molecule itself; assay: cryo-EM structure; remark: listed apart in the source

Kd [2] [µM] | Binder | also measured
– | B1 | binding result [1]: binds
4.6 | B2 | –
> 13 | B3 | KaiB cooperativity index (fsKaiB as secondary titrant) [2]: 1.6
> 25 | B4 | –
7.3 | B5 | –
> 25 | B6 | –
– | B7 | stoichiometry N [3]: 6
> 38 | B8 | –
5.9 | B9 | –
4.6 | B10 | –
> 43 | B11 | stoichiometry N [4]: 6
